US20220098256A1 (TOKUSHIMA UNIVERSITY, published 2022)
Values belong to the molecule of their own block, whether it stands above or below them. Positions of bridges follow the written chain, without caps; N, C: chain ends. Non-standard residues stand in square brackets, D forms with d. No end group written: not given here. Nle = CCCC[C@H](N)C(=O)O

Legend:
[1] = molecular target: brefeldin A-inhibited guanine nucleotide-exchange protein 3 (BIG3) (human) (UniProt Q5TH69); assay: cell-based or functional assay
Sequence of brefeldin A-inhibited guanine nucleotide-exchange protein 3 (BIG3) (human) (Q5TH69 whole entry): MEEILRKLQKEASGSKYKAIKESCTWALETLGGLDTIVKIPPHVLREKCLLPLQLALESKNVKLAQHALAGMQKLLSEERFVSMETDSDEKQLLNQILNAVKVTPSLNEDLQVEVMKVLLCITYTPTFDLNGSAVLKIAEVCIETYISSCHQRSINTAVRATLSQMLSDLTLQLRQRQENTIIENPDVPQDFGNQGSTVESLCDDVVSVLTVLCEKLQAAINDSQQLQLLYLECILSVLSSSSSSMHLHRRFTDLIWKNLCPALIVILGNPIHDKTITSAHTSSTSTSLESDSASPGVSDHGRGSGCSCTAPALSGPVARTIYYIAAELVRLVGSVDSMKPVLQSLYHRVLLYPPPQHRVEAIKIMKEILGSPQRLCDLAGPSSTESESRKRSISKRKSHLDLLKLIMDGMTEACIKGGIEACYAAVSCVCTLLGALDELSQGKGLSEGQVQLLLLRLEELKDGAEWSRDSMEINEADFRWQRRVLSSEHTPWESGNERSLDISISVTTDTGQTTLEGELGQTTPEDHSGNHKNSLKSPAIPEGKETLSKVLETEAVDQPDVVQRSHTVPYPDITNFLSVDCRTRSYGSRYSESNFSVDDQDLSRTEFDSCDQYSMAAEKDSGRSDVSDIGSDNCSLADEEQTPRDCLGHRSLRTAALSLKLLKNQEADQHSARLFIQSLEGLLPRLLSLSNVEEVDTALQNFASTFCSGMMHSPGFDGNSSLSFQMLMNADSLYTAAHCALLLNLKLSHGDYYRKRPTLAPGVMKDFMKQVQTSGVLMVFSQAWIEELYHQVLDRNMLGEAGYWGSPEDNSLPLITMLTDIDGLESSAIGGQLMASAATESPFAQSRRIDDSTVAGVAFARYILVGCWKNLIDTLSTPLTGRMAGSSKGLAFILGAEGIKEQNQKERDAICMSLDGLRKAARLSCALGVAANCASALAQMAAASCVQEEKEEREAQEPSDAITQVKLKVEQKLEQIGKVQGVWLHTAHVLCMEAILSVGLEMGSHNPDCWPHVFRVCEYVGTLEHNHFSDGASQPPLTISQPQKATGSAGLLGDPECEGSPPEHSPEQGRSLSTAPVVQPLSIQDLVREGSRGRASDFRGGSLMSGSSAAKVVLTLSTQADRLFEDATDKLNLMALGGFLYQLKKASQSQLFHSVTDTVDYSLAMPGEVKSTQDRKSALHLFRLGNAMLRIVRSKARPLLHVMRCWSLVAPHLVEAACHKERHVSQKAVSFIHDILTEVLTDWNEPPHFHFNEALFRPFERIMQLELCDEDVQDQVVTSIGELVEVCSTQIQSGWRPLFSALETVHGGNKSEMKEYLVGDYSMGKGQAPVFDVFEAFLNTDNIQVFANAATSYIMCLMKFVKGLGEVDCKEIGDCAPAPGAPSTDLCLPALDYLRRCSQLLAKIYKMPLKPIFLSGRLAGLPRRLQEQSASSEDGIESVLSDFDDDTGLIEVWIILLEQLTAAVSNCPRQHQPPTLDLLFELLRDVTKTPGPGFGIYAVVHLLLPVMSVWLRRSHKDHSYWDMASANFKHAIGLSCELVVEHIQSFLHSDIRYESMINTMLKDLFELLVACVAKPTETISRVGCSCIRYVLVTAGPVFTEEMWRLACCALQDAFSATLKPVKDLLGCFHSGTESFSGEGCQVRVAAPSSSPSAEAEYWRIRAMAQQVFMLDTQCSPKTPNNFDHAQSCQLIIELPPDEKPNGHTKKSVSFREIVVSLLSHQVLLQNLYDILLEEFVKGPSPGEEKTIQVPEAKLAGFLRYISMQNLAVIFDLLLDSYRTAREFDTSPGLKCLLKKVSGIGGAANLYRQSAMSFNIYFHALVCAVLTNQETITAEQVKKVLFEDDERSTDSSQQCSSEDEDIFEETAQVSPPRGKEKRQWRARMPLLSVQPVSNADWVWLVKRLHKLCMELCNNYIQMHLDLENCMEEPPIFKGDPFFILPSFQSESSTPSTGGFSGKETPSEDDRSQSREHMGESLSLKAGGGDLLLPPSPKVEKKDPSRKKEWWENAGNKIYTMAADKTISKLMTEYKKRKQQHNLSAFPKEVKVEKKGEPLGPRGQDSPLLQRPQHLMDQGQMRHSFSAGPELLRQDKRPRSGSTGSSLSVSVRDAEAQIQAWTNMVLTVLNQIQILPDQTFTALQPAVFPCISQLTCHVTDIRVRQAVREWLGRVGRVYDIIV

[2] = molecular target: brefeldin A-inhibited guanine nucleotide-exchange protein 3 (BIG3) (human) (UniProt Q5TH69); assay: co-immunoprecipitation with anti-BIG3 antibody from peptide-treated MCF-7 cells, PHB2 immunoblot, band area against untreated cells; 50 µM peptide
[3] = molecular target: brefeldin A-inhibited guanine nucleotide-exchange protein 3 (BIG3) (human) (UniProt Q5TH69); assay: co-immunoprecipitation from peptide-treated MCF-7 cells, Western blotting; 10 µM each peptide
[4] = molecular target: brefeldin A-inhibited guanine nucleotide-exchange protein 3 (BIG3) (human) (UniProt Q5TH69); assay: co-immunoprecipitation with anti-BIG3 antibody from peptide-treated MCF-7 cells, PHB2 immunoblot, band area against untreated cells; 50 µM each peptide
[5] = molecular target: brefeldin A-inhibited guanine nucleotide-exchange protein 3 (BIG3) (human, UniProt Q5TH69 1-2177); assay: cell-based or functional assay
Sequence of brefeldin A-inhibited guanine nucleotide-exchange protein 3 (BIG3) (Q5TH69 whole entry): as above

- IC50 against growth of triple-negative breast cancer cell line MDA-MB-231, 96 h [1]: 0.273 µM
- Ser39 phosphorylation of PHB2, band intensity compared to ERAP treatment [1]: 20%
- suppression of growth of MDA-MB-231, peptide alone at its IC50, 96 h [1]: 50%
- suppression ratio of E2-dependent growth of MCF-7, 10 µM, 24 h [1]: 51%
- suppression ratio of E2-dependent growth of MCF-7, peptide alone [1]: 55%
- suppression ratio of estrogen (E2)-dependent growth of MCF-7, 10 µM, 24 h [1]: 49%
- suppression ratio of estrogen-dependent growth of MCF-7, 10 µM, 24 h [1]: 54%
- inhibition ratio of the binding between BIG3 and PHB2 [2]: 80%
Molecule: PHB2 sequence-derived peptide No. 5 (76-90aa)

- IC50 against growth of triple-negative breast cancer cell line MDA-MB-231, 96 h [1]: 0.462 µM
- Ser39 phosphorylation of PHB2, band intensity compared to ERAP treatment [1]: 40%
- suppression of estrogen-dependent growth of MCF-7, 10 µM, 24 h [1]: 65%
- suppression of growth of MDA-MB-231, peptide alone at its IC50, 96 h [1]: 50%
- suppression ratio of E2-dependent growth of MCF-7, 10 µM, 24 h [1]: 63%
- suppression ratio of E2-dependent growth of MCF-7, peptide alone [1]: 65%
- suppression ratio of estrogen (E2)-dependent growth of MCF-7, 10 µM, 24 h [1]: 58%
- inhibition ratio of the binding between BIG3 and PHB2 [2]: 64%
Molecule: PHB2 sequence-derived peptide No. 1 (11-22aa)

- inhibition ratio of the interaction between BIG3 and PHB2 [3]: 67%
- Ser39 phosphorylation of PHB2, band intensity compared to ERAP treatment [1]: 70%
- growth suppressive effect on E2-dependent growth of MCF-7 [1]: 88%
- suppression of E2-dependent growth of MCF-7, 10 µM each [1]: 100%
- suppression of growth of MDA-MB-231, both peptides at their IC50, 96 h [1]: 62%
- inhibition ratio of the binding between BIG3 and PHB2 [4]: 87%
Molecule: combination of PHB2 peptides No. 1 (11-22aa) and No. 5 (76-90aa)

- inhibition ratio of the interaction between BIG3 and PHB2 [3]: 81%
- suppression of E2-dependent growth of MCF-7, 4 µM cyclic 11-21aa and 2 µM cyclic 76-88aa, 24 hours [1]: 82%
- suppression ratio of E2-dependent growth of MCF-7, 4 µM cyclic 11-21aa and 2 µM cyclic 76-88aa, up to 96 hours [1]: 88%
- suppression ratio of E2-dependent growth of MCF-7, 10 µM each, 24 h [1]: 96%
Molecule: combination of cyclic PHB2 peptides 11-21aa and 76-88aa

- suppression ratio of estrogen-dependent growth of MCF-7, 10 µM, 24 h [5]: 19%
Molecule: RLPAAPRGMGTA (not fully specified (C-terminus)) [alanine-mutated PHB2 peptide No. 59]

- suppression ratio of E2-dependent growth of MCF-7, in combination with 10 µM No. 5 (76-90aa) [5]: ≥ 90%
Molecule: AGRLPAGPRGMG (not fully specified (C-terminus)) [PHB2 sequence-derived peptide No. 38]

- suppression ratio of E2-dependent growth of MCF-7, in combination with 10 µM No. 5 (76-90aa) [5]: ≥ 90%
Molecule: GPRGMGTALKLL (not fully specified (C-terminus)) [PHB2 sequence-derived peptide No. 40]

- suppression ratio of estrogen-dependent growth of MCF-7, 10 µM, 24 h [5]: 17%
Molecule: ESVFTVEGGHRAIRRRRRRRR-NH2 [PHB2 sequence-derived peptide No. 3 (38-50aa)]

- IC50 for E2-dependent growth of MCF-7 [5]: 2.11 µM
- suppression ratio of E2-dependent growth of MCF-7, 2 µM, up to 96 hours [5]: 59%
- suppression ratio of E2-dependent growth of MCF-7, 10 µM, 24-hour treatment [5]: 58%
- suppression ratio of E2-dependent growth of MCF-7, 10 µM, after 96 hours [5]: 72%
B1: cyclic PHB2 peptide 76-88aa (peptide)
peptide: CQYPIIYDIRARPRCF[Nal]RRRR
modifications: disulfide 1-15 (inferred); not fully specified; also: X17: an unnatural amino acid, amide bond between the added C-terminal and N-terminal residues (cyclic)

- suppression ratio of estrogen-dependent growth of MCF-7, 10 µM, 24 h [5]: 61%
Molecule: ESVFTVEGGHRAIFFNRIGG (not fully specified (C-terminus)) [PHB2 sequence-derived peptide No. 83]

- suppression ratio of E2-dependent growth of MCF-7, in combination with 10 µM No. 5 (76-90aa) [5]: ≥ 90%
Molecule: DLAGRLPAGPRG (not fully specified (C-terminus)) [PHB2 sequence-derived peptide No. 37]

- suppression ratio of E2-dependent growth of MCF-7, peptide alone [5]: ~10%
Molecule: RPRKISSPTGSKDLQRRRRRRRR-NH2 [PHB2 sequence-derived peptide No. 6 (86-100aa)]

- suppression ratio of estrogen-dependent growth of MCF-7, 10 µM, 24 h [5]: 59%
Molecule: EGGHRAIFFNRIGG (not fully specified (C-terminus)) [PHB2 sequence-derived peptide No. 82]

- suppression ratio of E2-dependent growth of MCF-7, in combination with 10 µM No. 5 (76-90aa) [5]: ≥ 90%
Molecule: LKDLAGRLPAGP (not fully specified (C-terminus)) [PHB2 sequence-derived peptide No. 36]

- IC50 for E2-dependent growth of MCF-7 [5]: 4.06 µM
- suppression ratio of E2-dependent growth of MCF-7, 4 µM, up to 96 hours [5]: 41%
- suppression ratio of E2-dependent growth of MCF-7, 10 µM, 24-hour treatment [5]: 53%
- suppression ratio of E2-dependent growth of MCF-7, 10 µM, after 96 hours [5]: 67%
B2: cyclic PHB2 peptide 11-21aa (peptide)
peptide: CRLPAGPRG[Nle]GTCF[Nal]RRRR
modifications: disulfide 1-13; not fully specified; also: amide bond between the added C-terminal and N-terminal residues (cyclic)

- suppression ratio of estrogen-dependent growth of MCF-7, 10 µM, 24 h [5]: 38%
Molecule: QYPIAYDIRARPRKI (not fully specified (C-terminus)) [alanine-mutated PHB2 peptide No. 71]

- suppression ratio of estrogen-dependent growth of MCF-7, 10 µM, 24 h [5]: 13%
Molecule: QYPIIYAIRARPRKI (not fully specified (C-terminus)) [alanine-mutated PHB2 peptide No. 73]

- Ser39 phosphorylation of PHB2, relative to ERAP treatment [5]: 30%
- suppression ratio of E2-dependent growth of MCF-7, 24 h, 50 µM [5]: 57%
B3: PHB2 peptide 11-90aa (peptide)
peptide: RLPAGPRGMGTALKLLLGAGAVAYGVRESVFTVEGGHRAIFFNRIGGVQQDTILAEGLHFRIPWFQYPIIYDIRARPRKI

- suppression ratio of estrogen-dependent growth of MCF-7 [5]: ~65%
Molecule: RLPA[dL]PR[dL]MGTARRRRRRRR (not fully specified (C-terminus)) [PHB2 peptide 11-22aa with glycines at positions 15 and 18 substituted with D-leucines]

- suppression ratio of estrogen-dependent growth of MCF-7, 10 µM, 24 h [5]: 20%
Molecule: TVEGGHRAIRRRRRRRR-NH2 [PHB2 sequence-derived peptide No. 2 (42-50aa)]

- suppression ratio of estrogen-dependent growth of MCF-7, 10 µM, 24 h [5]: 8%
Molecule: RLPAGPRAMGTA (not fully specified (C-terminus)) [alanine-mutated PHB2 peptide No. 62]

- suppression ratio of estrogen-dependent growth of MCF-7, 10 µM, 24 h [5]: 37%
Molecule: QYPIIADIRARPRKI (not fully specified (C-terminus)) [alanine-mutated PHB2 peptide No. 72]

- suppression ratio of E2-dependent growth of MCF-7, in combination with 10 µM No. 5 (76-90aa) [5]: ≥ 90%
Molecule: PAGPRGMGTALK (not fully specified (C-terminus)) [PHB2 sequence-derived peptide No. 39]
